Experimental data from article PMC2599807 (Biochemistry, 2008).

Target: the molecule itself
Assay: SEC + other: dynamic light scattering

B1: O. brevis BxmR (CPx-ATPase metal-regulated repressor), wild-type (natural protein, Oscillatoria brevis, UniProt Q76L30 1-136, looked up)
chain: MSPKSAVNGAISQPHQENDTPTCDRAHLVDCSRVGDIQTQVLNTAKAQRMAEFFSLLGDANRLRLVSVLAKQELCVCDLAATLGMSESAVSHQLRAMRAMRLVSYRKVGRQVFYSLLDRHVLELYRAVAEHLDEES
stoichiometry N: 2
